Data reported in patent US20070042954A1.
Like-named read-outs stand apart in the source and are kept apart here. Where no end group is shown, it is not given here.

Assays:
Experiment in all cases: radioreceptor assay, displacement of [125I-DTyr0]-astressin from purified sCRFR2α
[1] = biological target: bact sCRFR2α (mouse soluble CRF receptor type 2α, amino acids 20-143, purified from E. coli) (mouse)
[2] = biological target: mam sCRFR2α (mouse soluble CRF receptor type 2α, amino acids 1-143 with a FLAG epitope following amino acid 143, purified from COS M6 cell media) (mouse)
[3] = biological target: T1, mam sCRFR2α (mouse soluble CRF receptor type 2α, amino acids 1-143 with a FLAG epitope following amino acid 143, purified from COS M6 cell media) (mouse)
T1 chain: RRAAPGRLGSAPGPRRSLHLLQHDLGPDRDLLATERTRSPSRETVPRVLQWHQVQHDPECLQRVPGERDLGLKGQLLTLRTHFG

Binder	Ki [1]	Ki [2]	Ki [3]
VILSLDVPIGLLRILLEQARYKAARNQAATNAQILAHV (peptide, UniProt Q99ML8 73-110, looked up) [mUcn2 (urocortin 2)]	116 nM	113 nM	
SEEPPISLDLTFHLLREVLEMARAEQLAQQAHSNRKLMEII (ends and bridges not checked) [corticotropin releasing factor (CRF)]	14.8 nM	23 nM	
DDPPLSIDLTFHLLRTLLELARTQSQRERAEQNRIIFDSV (peptide, UniProt P55090 81-120, looked up) [rUcn1 (urocortin 1)]	5.8 nM	6.6 nM	
FHLLREVLEMARAEQLAQEAHKNRKLMEII (modifications not checked) [Astressin]			6.7 nM
